Laboratory results taken from PMC4643928.

Assays:
Experiment in all cases: fluorescence anisotropy
Settings in all cases: FA: 20 mM Tris-HCl pH 7.5, 70 mM KCl, 1 mM MgCl2, 10% glycerol, 50 nM DNA, EMSA: 20 mM Tris-HCl pH 7.5, 300 mM KCl, 4 mM MgCl2, 5 mM DTT, 1 nM …
[1] = test system: MBP-PfGyrA-CTD(ΔN) (Plasmodium falciparum)
[2] = test system: EcGyrA-CTD(ΔT) (Escherichia coli)
[3] = test system: MBP-PfGyrA-CTD (Plasmodium falciparum)

Substance: 37-bp dsDNA
- Kd [1]: 222 nM
- Kd [2]: 1110 nM
- Kd [3]: 205 nM
